Source: patent US20260258115A1 (MAPP BIOPHARMACEUTICAL, published 2026)

Assays:
[1] = target: T1, RSV prefusion F (preF), subtype B (respiratory syncytial virus subtype B); experiment: BLI, IgG
T1 construct: also called Prefusion subtype B

[2] = target: RSV F on RSV subtype A virus (mKate-RSV A2) (respiratory syncytial virus A2, UniProt P03420 26-574); experiment: cell-based or functional assay
[3] = target: RSV F on RSV subtype B virus (mKate-RSV B 18537) (respiratory syncytial virus B 18537, UniProt P13843 26-574); experiment: cell-based or functional assay
[4] = target: T2, RSV postfusion F (postF), subtype A (respiratory syncytial virus subtype A, UniProt P03420 26-513); experiment: BLI
T2 construct: also called Postfusion subtype A; F deltaFP

Row | Binder | Kd [1] [nM] | Neut IC50 subtype A [2] [µg/mL] | Neut IC50 subtype B [3] [µg/mL] | binding result [4]
1 | ADI-24860 (antibody, V domains shown, full-length IgG; also called Ab 420) VH: EVQLLESGGGLVKPGGSLRLSCAASGLTFSDYYMSWIRQAPGKGLEWVSYISGGSSYSNYADSVKGRFTISRDNAKNSLYLQMNSLRAEDTAVYYCARGYCSGSSCYEAFDIWGQGTTVTVSS VL: SYVLTQPPSVSGAPGQRVTISCTGSSSNIGAGFDVHWYQQLPGTAPKLLIYGNSDRPSGVPDRFSGSKSGTSASLAITGLQAEDEADYYCQSYDSSLSGYVFGTGTKVTVL | 1.56 | 0.06 | 0.09 | no binding
2 | ADI-25524 (antibody, V domains shown, full-length IgG) VH: EVQLLESGGGLVKPGGSLRLSCAASGFTFSSYSMNWVRQAPGKGLEWVSSISSSSSYIYYADSVKGRFTISRDNAKNSLYLQMNSLRAEDTAVYYCAREWSPIVVVTNAFDIWGQGTMVTVSS VL: QSVLTQPPSVSGAPGQRVTISCTGSSSNIGAGYDVHWYQQLPGTAPKLLIYGNSNRPSGVPDRFSGSKSGTSASLAITGLQAEDEADYYCQSYDSSLSGWVFGGGTKVTVL | 23.4 | 1.77 | 2.09 | no binding
3 | ADI-14357 (antibody, V domains shown, full-length IgG; also called Ab 25) VH: EVQLVESGGGVVQPGRSLRLSCAASGFTFSNYAMHWVRQAPGKGLEWVSIISYDGSNKYYADSVKGRFTISRDNSKNTLYLQINSLRTEDTAVYYCARARKRIPIVVVTAPYYYGMDVWGQGTTVTVSS VL: DIRVTQSPSSLSASVGDRVTITCRASQSISSYLHWYQQQPGKAPNLLIYAASNLQSGVPSRFSGSGSGTDFTLTISSLQPEDFATYYCQQSYTTPHTFGQGTKVEIK | 0.306 | 1.24 | 0.88 | no binding
4 | ADI-14344 (antibody, V domains shown, full-length IgG; also called Ab 12) VH: QVQLVQSGGGLVQPGGSLRLSCAASGFTFRTYALSWVRQAPGKGLEWVSSILGSGGSTYYADSVKGRFTISRDNSKNTLYLQLNSLRAEDTAVYFCAKLAVAGLLHHYYGLDVWGQGTTVTVSS VL: SYELTQPPSVSVSPGQTASITCSGDKLENKYACWYQQKPGQSPVLLIYQDTKRPSGIPERFSGSNSGTTATLTISGTQALDEADYYCQAWDSSTASVLFGGGTQLTVL | 0.586 | 8.68 | 1.2 | no binding
5 | ADI-14333 (antibody, V domains shown, full-length IgG; also called Ab 1) VH: EVQLVETGGGLVKPGGSLRLSCADSGFPFSSYSMHWVRQAPGKGLEWVASISSSSSFINYADSVKGRFTISRDNAKNSLYLQMNSLRAEDTAVYFCAREAACGGDCYGYYFDYWGQGTLVTVSS VL: QSVVTQPPSASGAPGQRVTISCTGSSSNIGAGYDVHWYQQLPGTAPKVLISGNSNRPSGVPARFSGSKSGTSASLAITGLQAEDEADYYCQSYDSSLSGSVFGGGTQLTVL | 0.904 | 0.07 | 0.09 | no binding
6 | ADI-14335 (antibody, V domains shown, full-length IgG; also called Ab 3) VH: EVQLVESGGGLVQPGRSLRLSCTASGFTFGDYAMSWVRQAPGKGLEWVGFIRSNAFGGTSEYAASVKGRFTISRDDSKSIAYLQMNSLKTEDTAVYYCTRDGIHDYGDSYYYYGMDVWGQGTTVTVSS VL: DIQLTQSPSSLSASVGDRVTITCRASQTVTTYLNWYQQKPGKAPKLLIYGASSLQSGVPSRFSGSGSGTDFTLTINSLQPEDFATYYCQQTYSTVTFGPGTKVEIK | 0.889 | 0.32 | 0.1 | no binding
7 | ADI-24857 (antibody, V domains shown, full-length IgG) VH: EVQLLESGGGLVKPGGSLRLSCAASGFTFSSYSMNWVRQAPGKGLEWVSSISSSSSYIYYADSVKGRFTISRDNAKNSLYLQMNSLRAEDTAVYYCAREGYYYGSGSYLDYWGQGTLVTVSS VL: QSVVTQPPSVSGAPGQRVTISCTGSSSNIGAGYDVHWYQQLPGTAPKLLIYGNSNRPSGVPDRFSGSKSGTSASLAITGLQAEDEADYYCQSYDSSLSVVFGGGTKLTVL | 3.71 | 0.18 | 1.4 | no binding
8 | ADI-14346 (antibody, V domains shown, full-length IgG; also called Ab 14) VH: EVQLLESGGGLVKPGGSLRLSCAASGFRFSSYSMNWVRQAPGKWLEWVSSISASSSYTDYADSVKGRFTISRDNAKNSLYLQMNSLRAEDTAVYYCAREDYLSSGSLLHWFDPWGQGTLVTVSS VL: QPVLTQPPSVSGAPGQRVTISCTGSSSNIGAGYDVHWYQQLPGTAPKLLIYGNNNRPSGVPDRFSGSKSGTSASLAITGLQAEDEADYYCQSYDSRLSVLFGGGTKVTVL | 0.925 | 0.05 | 0.07 | no binding
9 | ADI-14337 (antibody, V domains shown, full-length IgG; also called Ab 5) VH: EVQLVESGGGLVKPGGSLRLSCAASGFTFSSYSMNWVRQAPGKGLEWVSSISSSSSYIYYADSVKGRFTISRDNAKNSLYLQMNSLRAEDTAVYYCAREYYDSSGYTNWFDPWGQGTLVTVSS VL: QPVLTQPPSVSGAPGQRVTISCTGSSSNIGAGYDVHWYQQLPGTAPKLLIYGNSNRPSGVPDRFSGSKSGTSASLAITGLQAEDEADYYCQSYDSSLAWVFGGGTQLTVL | 2.11 | 0.1 | 0.07 | no binding
10 | ADI-14345 (antibody, V domains shown, full-length IgG; also called Ab 13) VH: QITLKESGAEVKKPGASVKVSCKVSGYTLSDFSMHWVRQAPGKGLEWMGSFDPEDGETVDAQKFQGRVTMTEDRSTATAYMELRSLRSEDTAVYYCGTPASAGQVDYWGQGTLVTVSS VL: not shown | 5.26 | 2.3 | 0.87 | no binding
11 | ADI-19475 (antibody, V domains shown, full-length IgG) VH: EVQLLESGAEVKKPGASVKVTCKASGYTFTHFGINWVRQAPGQGLEWLGWISAYNGNTNYVQKIQGRVTMTTDTSTNTAYMELRSLRSDDTAVYYCARGPPVEAAGTFDYWGQGTLVTVSS VL: DIVLTQSPLSLPVTLGQPASISCRSSQSLVYSDGNTYLTWFQQRPGQSPRRLIYKVSNRDSGVPDRFSGSGSGTDFTLQISRVEAEDVGVYYCMQGTHWPFTFGPGTKVEIK | 4.25 | 0.05 | 0.04 | no binding
12 | ADI-19501 (antibody, V domains shown, full-length IgG) VH: QVQLVQSGAEVKKPGASVKVSCKASGYAFTNYGVSWVRQAPGQGLEWMGWISVYNGNTNYAQKLQGRVTMTTDTSTSTAYMELRSLRSDDTALYYCARDPPSEGAAGLFDYWGQGTLVTISS VL: DIVMTQSPLSLPVTLGQPASFSCRSSQSLVYSDGNTYLSWFQQRPGQSPRRLIYKVSNRDSGVPDRFSGSGSGTDFTLKISRVEAEDVGVYYCMQGTHWPCTFGQGTKVEIK | 1.59 | 0.02 | 0.02 | no binding
13 | ADI-22757 (antibody, V domains shown, full-length IgG) VH: EVQLLESGAEVKKPGASVKVSCKASGYTFSNYGISWVRQAPGQGLEWMGWISVYNGNTEYAQKFQGRLTMTTDTSTSTAYMELRSLRSDDTAVYYCARDPPAVAASFMDVWGQGTTVTVSS VL: EIVLTQSPLSLPVTLGQPASISCRSSQSLVHSEGNTYLSWFQQRPGQSPRRLIYKVSNRDSGVPDRFSGSGSGTDFTLKISRVEAEDVGLYFCMQGTHWPPTFGGGTKVEIK | 0.538 | 0.06 | 0.07 | no binding
14 | ADI-14340 (antibody, V domains shown, full-length IgG; also called Ab 8) VH: EVQLVESGGGLVKPGGSLRLSCAASGFTLSSYTMNWVRQAPGRGLEWVSSIYSTSSYIYYADSVKGRFTISRDNAKNSLYLQMNSLRAEDTAVYYCARDSQAVTGTDLYFDSWGQGTLVTVSS VL: QPGLTQPPSVSVAPGKTARITCGGNNIGRKNVHWYQQKPGQAPILVIYYDSDRPSGIPERFSGSNSGNTATLTISRVEDGDEADYYCQVWDSSNDHVIFGGGTQLTVL | 98 | 6.63 | 1.94 | no binding
15 | ADI-14364 (antibody, V domains shown, full-length IgG; also called Ab 32) VH: QVQLVQSGAEVKKPGESLKISCKGSGYSFTSHWIGWVRQMPGKGLEWMGITDPGDSDTRYSPSFQGQVTISADKSISTAYLQWSSLKASDTAMYYCAREPRRWMTTETNGPYYFDNWGQGTLVTVSS VL: SYVLTQPPSVSVAPGKTARITCGGNNIGSKSVHWYQQKPGQAPVLVIYYDSDRPSGIPERFSGSNSGNTATLTISRVEAGDEADYYCQVWDSSSDNRVFGGGTKVTVL | 61.6 | 0.03 | 2.39 | no binding
16 | ADI-22774 (antibody, V domains shown, full-length IgG) VH: EVQLLESGGGLVKPGGSLRLSCAASGFTFSSYSMNWVRQAPGKGLEWVSSISSSSSYIYYADSVKGRFTISRDNAKNSLYLQMNSLRAEDTAVYYCAREGASGYNYRYYFDYWGQGTLVTVSS VL: QSVLTQPPSVSGAPGQRVTISCTGSSSNIGAGYDVHWYQQFPGAAPKLLIYGNNNRPSGVPDRFSGSKSGTSASLAITGLQADDEADYYCQSYDSSLSGYVVFGGGTKLTVL | 4.28 | 0.29 | 7.53 | no binding
17 | ADI-14347 (antibody, V domains shown, full-length IgG; also called Ab 15) VH: EVQLVESGGGLVKPGGSLRLSCAASGFTFRDYYMNWIRQAPGKGLEWVSDISASSSYTNYADSVKGRFTISRDNAKTSLYLQMNSLRAEDTAVYYCAREVVTAMGGYYFDYWGQGTLVTVSS VL: QSVVTQPPSVSGAPGQRVTISCTGSSSNIGAGYDVHWYQQLPGTAPKLLIYGNNNRPSGVPDRFSGSKSGTSASLAITGLQAEDEADYYCQSYDSSLSGSGVFGTGTKVTVL | 2.54 | 0.11 | 0.05 | no binding
